The source of these data is PMC11162469, “Discovery of RXFP2 genetic association in resistant hypertensive men and RXFP2 antagonists for the treatment of resistant hypertension” (Scientific Reports, 2024).

One assay has as its target RXFP2 mAb 2H3 (rat). Kind of assay: SPR; Biacore S200; goat anti-rat Fc gamma immobilised on a Series S CM5 chip, purified recombinant rat anti-RXFP2 antibodies captured at 5 µg/mL; rat or human LDLa-linker protein flowed as analyte at 20, 10, 5, 2.5, 1.75 and 0 nM; 1:1 fit model.
Assay [1] deals with rat relaxin family peptide receptor 2 (RXFP2) (rat) (UniProt Q5ECL0).
Assay [2] shares this target. The source holds these as a separate data set.

Bridge positions count the residues as written; N and C are the ends. Ends that are not written are not given here. I, II: the chains in the order shown.

rat relaxin family peptide receptor 2 (RXFP2) (rat), sequence (Q5ECL0 entry or part of it): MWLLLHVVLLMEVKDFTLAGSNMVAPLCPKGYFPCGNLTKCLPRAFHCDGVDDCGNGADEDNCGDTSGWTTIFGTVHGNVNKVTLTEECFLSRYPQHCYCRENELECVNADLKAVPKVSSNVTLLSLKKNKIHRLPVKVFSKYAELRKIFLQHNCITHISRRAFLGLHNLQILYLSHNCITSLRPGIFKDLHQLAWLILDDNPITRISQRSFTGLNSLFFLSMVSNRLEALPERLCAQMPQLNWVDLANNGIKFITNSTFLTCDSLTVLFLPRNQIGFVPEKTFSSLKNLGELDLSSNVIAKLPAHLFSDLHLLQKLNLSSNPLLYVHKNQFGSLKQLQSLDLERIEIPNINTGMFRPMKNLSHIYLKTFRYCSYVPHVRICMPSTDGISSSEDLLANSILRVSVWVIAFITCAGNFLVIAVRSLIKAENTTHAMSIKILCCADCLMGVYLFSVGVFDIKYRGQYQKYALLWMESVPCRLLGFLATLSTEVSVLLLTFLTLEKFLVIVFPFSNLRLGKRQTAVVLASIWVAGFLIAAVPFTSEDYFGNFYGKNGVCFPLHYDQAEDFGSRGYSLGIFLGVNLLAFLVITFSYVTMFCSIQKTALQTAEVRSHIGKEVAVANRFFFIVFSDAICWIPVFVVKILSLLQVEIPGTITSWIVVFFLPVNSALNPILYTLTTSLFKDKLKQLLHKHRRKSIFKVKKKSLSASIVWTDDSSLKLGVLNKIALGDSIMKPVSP

B1: rat LDLa-linker protein (ratRXFP2-LDLa-linker(20-88)) (domain or fragment)
chain: GSNMVAPLCPKGYFPCGNLTKCLPRAFHCDGVDDCGNGADEDNCGDTSGWTTIFGTVHGNVNKVTLTEE
B1: in the assay with RXFP2 mAb 2H3 (rat), the dissociation constant Kd was found to be 582 nM.

B2: Rat INSL3 (ligand)
chain 1: SVATNAVHRCCLTGCTQQDLLGLCPH
chain 2: LRSPQPPEARAKLCGHHLVRALVRVCGGPRWSPEA
modifications: disulfide I:10-I:15, I:11-II:14, I:24-II:26
Consider B2, for which the EC50, aldosterone secretion (ELISA) from H295R cells stably expressing rat RXFP2 in assay [1] came to 2.2 nM. The EC50, cortisol secretion (ELISA) from H295R cells stably expressing rat RXFP2 in assay [2] is 0.16 nM.

The term Kd denotes the free concentration of one partner at which half of the binding sites on the other are occupied at equilibrium, for simple one-to-one binding.
